# From patent publication US20110020842
# System: T1, peptide TRPM7p (Ac-RKKYRIVWKSIFRRFL)
# T1 sequence: RKKYRIVWKSIFRRFL
substance,measurement,value
TRPM7 kinase,fold increase in activity as compared to peptide MH-U,30 to 35 fold increase in activity
same,phosphorylation at a single substrate concentration (100 µM),both peptides are efficiently phosphorylated by their respective kinases
